To fix the notation:
B1: Membrane-associated guanylate kinase, WW and PDZ domain-containing protein 2, residues 601 to 682; numbered along this chain, Q86UL8 (parent)
chain: AELMTLTIVKGAQGFGFTIADSPTGQRVKQILDIQGCPGLCEGDLIVEINQQNVQNLSHTEVVDILKDCPIGSETSLIIHRG

± gives the uncertainty stated by the source.

The variants in this data set derive from B1. Put plainly: abundance fitness (aPCA) (normalised: wild type 0, dead -1); higher = more abundant; growth selection in yeast, the domain comes from the species named. The note with it: Homo sapiens.
Regarding P23D, the abundance fitness was -0.129 ± 0.1. As for P23N, the abundance fitness is -0.045 ± 0.11. In the case of P23R it was -0.03 ± 0.038. In the case of P23Q it was -0.029 ± 0.056; in that of P23K, 0.023 ± 0.049. On to P23E, for which the abundance fitness was -0.022 ± 0.043. Next, I79M: -0.005 ± 0.16. In the case of I79W, the abundance fitness was -0.467 ± 0.17.

As for K29I, the abundance fitness is -0.395 ± 0.29. In the case of R27T it was 0.021 ± 0.11; in that of R27M, -0.066 ± 0.29; in that of R27P, -0.382 ± 0.18. In the case of R27A it was -0.042 ± 0.17. Next, L77G: -1.02 ± 0.15. Consider L77I, for which the abundance fitness worked out at 0.24 ± 0.29. Consider L77A, for which the abundance fitness is -0.124 ± 0.07. Next, L77D: -1.28 ± 0.48; L77S: -0.583 ± 0.15; M4C: -0.136 ± 0.041. Next, M4R: -0.157 ± 0.026. Next, M4W: -0.102 ± 0.032. As to M4K, the abundance fitness was -0.002 ± 0.055. Next, M4Y: -0.022 ± 0.062; M4T: -0.014 ± 0.038; H59R: -0.009 ± 0.057. In the case of H59M it was 0.065 ± 0.1. With H59Q, the abundance fitness was -0.014 ± 0.1. In the case of H59G it was -0.018 ± 0.068. Next, E61V: -0.132 ± 0.089; E61K: -0.137 ± 0.17. In the case of E61S it was -0.2 ± 0.12; in that of I19R, -1.16 ± 0.25; in that of I19H, 0.134 ± 0.13. With I19G, the abundance fitness was -1.31 ± 0.28.

Regarding L3T, the abundance fitness turned out to be 0.015 ± 0.035. In the case of L3S it was -0.028 ± 0.032; in that of L3H, 0.035 ± 0.047; in that of L3K, 0.042 ± 0.038. In the case of L3E it was 0.038 ± 0.039.

L3D: the abundance fitness is -0.024 ± 0.056.

As for L3F, the abundance fitness is 0.016 ± 0.066.

For the variant L3I, the abundance fitness was 0.014 ± 0.06. In the case of L3G it was -0.018 ± 0.027; in that of V62F, -0.345 ± 0.31; in that of V62C, 0.181 ± 0.29. In the case of V62L it was -0.114 ± 0.087; in that of Q51C, -0.067 ± 0.059; in that of Q51E, -0.013 ± 0.063. Next, Q51A: -0.012 ± 0.043; N50K: -0.011 ± 0.12. Take N50T: the abundance fitness was -0.455 ± 0.15. In the case of K67G it was 0.052 ± 0.093; in that of K67R, 0.034 ± 0.089. Next, K67V: -0.112 ± 0.14.

In the case of V54P, the abundance fitness is -0.806 ± 0.064. Next, V54C: -0.086 ± 0.052; V54D: -0.964 ± 0.14.

As to V54Q, the abundance fitness is -0.688 ± 0.064.

Consider V54T, for which the abundance fitness was -0.037 ± 0.035. Next, V54F: -0.867 ± 0.082. Next, D68V: 0.046 ± 0.082; D68C: -0.101 ± 0.14. In the case of D68E it was -0.022 ± 0.088.

As for V9S, the abundance fitness was -0.102 ± 0.041. In the case of V9M, the abundance fitness amounted to 0.003 ± 0.053. Next, V9G: -0.077 ± 0.027. In the case of V9I it was -0.087 ± 0.08; in that of V9T, -0.011 ± 0.052. As to V9F, the abundance fitness was -0.044 ± 0.064. Next, I8W: -0.063 ± 0.038. For I8S, the abundance fitness is -0.059 ± 0.037. Next, I8K: -0.261 ± 0.056; I8N: -0.282 ± 0.077; I8M: -0.053 ± 0.053. For the variant G25N, the abundance fitness was -0.162 ± 0.079.

Consider G25A, for which the abundance fitness was -0.046 ± 0.041. In the case of G25D it was -0.766 ± 0.23; in that of G25T, -0.318 ± 0.062. As for G25L, the abundance fitness is -0.538 ± 0.056. Next, G25E: -0.127 ± 0.061; G25C: -0.17 ± 0.08. Next, G72N: -0.189 ± 0.34. Next, G72Y: -0.419 ± 0.24. Regarding G72T, the abundance fitness was -0.147 ± 0.092. Regarding G72K, the abundance fitness is -0.139 ± 0.099. Next, I34D: -0.036 ± 0.08; I34Q: -0.031 ± 0.081; I71E: -0.033 ± 0.11. In the case of I71G it was 0.038 ± 0.074. Next, G82P: -0.058 ± 0.12; G82K: -0.16 ± 0.15. Take G82L: the abundance fitness was -0.148 ± 0.17. Consider G82F, for which the abundance fitness is -0.25 ± 0.17. In the case of G39N it was -0.043 ± 0.24. Next, G39S: -0.035 ± 0.084. In the case of G39W it was -0.211 ± 0.25; in that of G39D, -0.197 ± 0.17; in that of D64I, -0.183 ± 0.18. For D64Y, the abundance fitness is 0.08 ± 0.19. Next, D64V: -0.06 ± 0.063. In the case of D64K it was 0.011 ± 0.16.

On to D64P, for which the abundance fitness was -0.202 ± 0.2. D64W: the abundance fitness is -0.047 ± 0.1. Next, D64L: -0.128 ± 0.087; D64F: -0.112 ± 0.2; D64Q: -0.057 ± 0.11. In the case of C41T it was 0.046 ± 0.048; in that of C41L, -0.005 ± 0.037; in that of C41M, -0.04 ± 0.05. Next, H80S: 0.014 ± 0.075; H80L: -0.135 ± 0.079.

As for S73M, the abundance fitness was -0.004 ± 0.14. In the case of S73H it was 0.024 ± 0.15; in that of S73V, -0.025 ± 0.067; in that of S73Y, -0.178 ± 0.19. Next, E74I: -0.214 ± 0.16; E74V: -0.122 ± 0.12. Next, I78Q: -0.23 ± 0.14.

Take I78M: the abundance fitness is 0.144 ± 0.14.

Consider I46T, for which the abundance fitness was -0.587 ± 0.27. In the case of L40V it was -0.061 ± 0.081; in that of L40A, -0.108 ± 0.17; in that of L40T, -0.498 ± 0.097. In the case of L40P it was -0.232 ± 0.09. L40G: the abundance fitness is -0.752 ± 0.13. In the case of I65S it was -0.059 ± 0.04; in that of I65M, -0.051 ± 0.05. Next, L57G: -0.152 ± 0.065; L57H: -0.008 ± 0.14.

With L57E, the abundance fitness was -0.038 ± 0.079.

Regarding T24D, the abundance fitness was -0.037 ± 0.05. For the variant T24G, the abundance fitness was found to be 0.041 ± 0.035. Next, S22V: -0.063 ± 0.13. Next, S22D: 0.048 ± 0.27; T7E: -0.133 ± 0.039; T7N: 0.044 ± 0.087. In the case of T7M it was -0.083 ± 0.059. As to T7F, the abundance fitness was -0.017 ± 0.068. Next, T7S: -0.103 ± 0.037; T7R: -0.052 ± 0.032; F15E: -0.141 ± 0.044. In the case of F15Y it was -0.048 ± 0.064; in that of F15D, -0.118 ± 0.052; in that of F15A, -0.179 ± 0.045.

In the case of F15N, the abundance fitness was -0.144 ± 0.049.

On to L45M, for which the abundance fitness came out at 0.089 ± 0.17. For the variant L45S, the abundance fitness came out at 0.256 ± 0.26. Next, L45R: -0.244 ± 0.32; A1G: -0.113 ± 0.065. Take A1R: the abundance fitness amounted to 0.216 ± 0.31. In the case of A1W it was -0.397 ± 0.35.

For G16Y, the abundance fitness is -0.155 ± 0.053.

G16Q: the abundance fitness is -0.085 ± 0.04. Next, G16W: -0.045 ± 0.037.

L32A: the abundance fitness was -0.218 ± 0.27. Next, L32W: -0.158 ± 0.22; L32V: 0.052 ± 0.12.

Consider L32P, for which the abundance fitness is -0.119 ± 0.13. On to L32Q, for which the abundance fitness is -0.212 ± 0.25. As to L32G, the abundance fitness stood at 0.021 ± 0.059.

As for G11T, the abundance fitness is -0.015 ± 0.052. Next, G11I: -0.116 ± 0.062; G11E: -0.118 ± 0.057. Next, G11N: 0.017 ± 0.098; G11H: -0.142 ± 0.13; Q52D: 0.027 ± 0.061. In the case of Q52R it was -0.007 ± 0.037.

For the origin of these results see the Human Domainome abundance scans (Beltran et al. 2025).
